Where “and” joins values, the source holds several entries; their conditions need not be identical. Equal values may be shown once. Read-outs that look alike come from different tables or passages of the source.
Assays:
[1] = target: Isotopically depleted, truncated, strepII-tagged R. rubrum encapsulated ferritin (wild type) (Rhodospirillum rubrum); test: native MS
[2] = target: Isotopically depleted, truncated, strepII-tagged R. rubrum encapsulated ferritin (wild type) (Rhodospirillum rubrum); test: native MS; remark: listed apart in the source
[3] = target: Isotopically depleted, truncated, strepII-tagged R. rubrum encapsulated ferritin (wild type) (Rhodospirillum rubrum); test: native MS; remark: listed apart in the source
[4] = target: Isotopically depleted, truncated, strepII-tagged R. rubrum encapsulated ferritin (wild type) (Rhodospirillum rubrum); test: native MS; remark: listed apart in the source
[5] = target: Isotopically depleted, truncated, strepII-tagged R. rubrum encapsulated ferritin (wild type) (Rhodospirillum rubrum); test: native MS; remark: listed apart in the source
[6] = target: Isotopically depleted, truncated, strepII-tagged R. rubrum encapsulated ferritin (wild type) (Rhodospirillum rubrum); test: native MS; remark: listed apart in the source
crystal structure = target: the molecule itself; test: crystal structure
SEC = target: the molecule itself; test: SEC
[7] = target: T1, Rhodospirillum rubrum encapsulin (Rhodospirillum rubrum, UniProt Q2RVS0 1-280); test: SEC
T1 sequence: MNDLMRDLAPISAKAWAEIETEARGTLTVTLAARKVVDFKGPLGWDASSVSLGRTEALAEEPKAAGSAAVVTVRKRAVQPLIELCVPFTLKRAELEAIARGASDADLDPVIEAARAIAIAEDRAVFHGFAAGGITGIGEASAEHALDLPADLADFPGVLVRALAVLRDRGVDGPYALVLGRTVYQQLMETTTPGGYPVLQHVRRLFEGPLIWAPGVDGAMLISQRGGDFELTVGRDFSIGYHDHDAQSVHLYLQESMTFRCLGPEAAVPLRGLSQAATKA

native MS [8] = target: the molecule itself; test: native MS
native MS [9] = target: the molecule itself; test: native MS; remark: listed apart in the source

Molecule: Isotopically depleted, truncated, strepII-tagged R. rubrum encapsulated ferritin (wild type) (domain or fragment)
- stoichiometry N [1]: 10
- stoichiometry N [2]: 4
- stoichiometry N [3]: 2
- stoichiometry N [4]: 10
- stoichiometry N [5]: 10
- stoichiometry N [6]: 2

B1: Truncated, C-terminally hexahistidine-tagged R. rubrum encapsulated ferritin E31A variant (domain or fragment)
chain: MAQSSNSTHEPLEVLKEETVNRHRAIVSVMAELEAVDWYDQRVDASTDPELTAILAHNRDEEKEHAAMTLEWLRRNDAKWAEHLRTYLFTEGPITA
- stoichiometry N (crystal structure): 10

B2: Truncated, C-terminally hexahistidine-tagged R. rubrum encapsulated ferritin E34A variant (domain or fragment)
chain: MAQSSNSTHEPLEVLKEETVNRHRAIVSVMEELAAVDWYDQRVDASTDPELTAILAHNRDEEKEHAAMTLEWLRRNDAKWAEHLRTYLFTEGPITA
- stoichiometry N (crystal structure): 10

B3: Rhodospirillum rubrum encapsulated ferritin, wild type (natural protein)
chain: MAQSSNSTHEPLEVLKEETVNRHRAIVSVMEELEAVDWYDQRVDASTDPELTAILAHNRDEEKEHAAMTLEWLRRNDAKWAEHLRTYLFTEGPITAIEAADTAGEGSGGDAAKGATAQGDGSLGIGSLKGEAALARPPRL
- stoichiometry N (SEC): 10 and 4
- binding result [7]: binds
- stoichiometry N (native MS [8]): 2

B4: Rhodospirillum rubrum encapsulated ferritin E31A variant (natural protein)
chain: MAQSSNSTHEPLEVLKEETVNRHRAIVSVMAELEAVDWYDQRVDASTDPELTAILAHNRDEEKEHAAMTLEWLRRNDAKWAEHLRTYLFTEGPITAIEAADTAGEGSGGDAAKGATAQGDGSLGIGSLKGEAALARPPRL
- stoichiometry N (SEC): 4 and 2
- binding result [7]: binds
- stoichiometry N (native MS [9]): 10

B5: Rhodospirillum rubrum encapsulated ferritin W38G variant (natural protein)
chain: MAQSSNSTHEPLEVLKEETVNRHRAIVSVMEELEAVDGYDQRVDASTDPELTAILAHNRDEEKEHAAMTLEWLRRNDAKWAEHLRTYLFTEGPITAIEAADTAGEGSGGDAAKGATAQGDGSLGIGSLKGEAALARPPRL
- binding result [7]: binds

B6: Rhodospirillum rubrum encapsulated ferritin E34A variant (natural protein)
chain: MAQSSNSTHEPLEVLKEETVNRHRAIVSVMEELAAVDWYDQRVDASTDPELTAILAHNRDEEKEHAAMTLEWLRRNDAKWAEHLRTYLFTEGPITAIEAADTAGEGSGGDAAKGATAQGDGSLGIGSLKGEAALARPPRL
- stoichiometry N (SEC): 4 and 2
- binding result [7]: binds
- stoichiometry N (native MS [9]): 10

B7: Rhodospirillum rubrum encapsulated ferritin W38A variant (natural protein)
chain: MAQSSNSTHEPLEVLKEETVNRHRAIVSVMEELEAVDAYDQRVDASTDPELTAILAHNRDEEKEHAAMTLEWLRRNDAKWAEHLRTYLFTEGPITAIEAADTAGEGSGGDAAKGATAQGDGSLGIGSLKGEAALARPPRL
- binding result [7]: binds

Reference: article doi:10.1101/785121 (bioRxiv, 2020)
